Assay results: patent US20240377400A1, “METHODS FOR TREATING A SUBTYPE OF COLORECTAL CANCER” (Cornell University, priority 2021, published 2024)

Assays:
MTO-sgPrkci/sgPrkcz = experiment: PEGPH20 treatment in vitro of mouse tumor organoids, qPCR; format: cell-based; conditions: PEGPH20 2.5 μg/ml every other day for 6 days
Source text: To perform PRKCI and PRKCZ editing in PDOs, single-guide RNA sequences targeting PRKCI and PRKCZ (Table 3), were purchased from Synthego and transduced into PDOs with recombinant Streptococcus pyogenes Cas9 protein (Truecut Cas9 Protein v2, Thermo. To knock out Prkcz in mouse sgPrcki MTOs (Linares et al., 2021), single-guide RNA sequence targeting Prkcz (Table 3) was purchased from Synthego and transduced into sgPrcki MTOs as described above. PRKCI, PRKCZ, and Prkcz were knocked out using the Neon Transfection System 1 (Invitrogen) following the manufacturer's protocol and single clones were expanded and screened by protein immunoblotting. For the deletion of Prkci and Prkcz in normal organoids, 500 nM 4-OH-tamoxifen was added the second day after organoids were passaged. […]
Total RNA from cultured organoids was extracted using TRIZOL reagent (Invitrogen) and purified by the RNeasy Mini Kit (QIAGEN), followed by DNase treatment. After quantification using a Nanodrop 1000 spectrophotometer (Thermo Scientific), RNA was either processed for RNA-seq or reverse-transcribed using random primers and MultiScribe Reverse Transcriptase (Applied Biosystems). Gene expression was analyzed by amplifying 500 ng of the complementary DNA using the CFX96 Real Time PCR Detection System with SYBR Green Master Mix (BioRad) and primers described in Table 2. […]

[1] = system: tumors from Prkci^fl/fl Prkcz^fl/fl Villin-cre (DKO) mice; experiment: scRNAseq and IHC of DKO mouse intestinal tumors treated with PVHA or Galunisertib; format: in vivo; conditions: non-tumor area
[2] = system: Prkci^f/fPrkcz^f/f; Villin-Cre tumors; experiment: Endogenous Prkci^f/fPrkcz^f/f; Villin-Cre tumors treated with PEGPH20: histology, tumor burden, Quant-seq; format: in vivo, mouse
Protocol: FIGS. 9E-9O illustrate Prkci^f/fPrkcz^f/f; Villin-Cre mice (mOle and female, 11-week-old) treated with Veh (n=10) or PEGPH20 (n=12), 0.0375 mg/kg for 3 weeks. Experimental design (E); IHC HA, Masson's trichrome, and αSMA(F); staining quantification (n=5) (G); macroscopic images of tumors (H); total tumor number, tumor size, and tumor load (I); quantification of cancer incidence (J); and sessile serrated lesions (SSL) and carcinoma quantification of tumors (K). Scale bars, 50 μm (F), 10 mm (H). The red arrow denotes tumors>5 mm (H). (L-N) GSEA of transcriptomic data from Quant-seq on PEGPH20-treated tumors versus Veh (n=3) using compilation H (MSigDB) (L), stroma-related signatures (M) and serrated-related signatures (N). (O) GSEA plots of the indicated gene signatures for PEGPH20-treated tumors versus Veh (n=3). Results are shown as mean±SEM *p<0.05, **p<0.01, ***p<0.001, ****p<0.0001. See also FIG. 16.
Animal handling and experimental procedures conformed to institutional guidelines and were approved by the Sanford-Burnham-Prebys Medical Discovery Institute Institutional Animal Care and Use Committee, and by the Weill Cornell Medicine Institutional Animal Care and Use Committee. Prkci^f/fPrkcz^f/f, Villin-Cre, Prkci^f/fPrkcz^f/f; Villin-Cre and Villin-CreERT2 mice were previously described (el Marjou et al., 2004; Madison et al., 2002; Nakanishi et al., 2018) Prkci^f/fPrkcz^f/f; Villin-CreERT2 mice were generated by breeding Prkci^f/fPrkcz^f/f mice with Villin-CreERT2 (Jackson Laboratory, stock number 020282) mice. All mouse strains were generated in a C57BL/6 background and were born and maintained under pathogen-free conditions. For PEGPH20 treatment, 11-week-old Prkci^f/fPrkcz^f/f; Villin-Cre were retro-orbitally injected twice a week for 3 weeks with a dose of 0.0375 mg/kg of PEGPH20 (Halozyme Therapeutics), until they were sacrificed. Control mice were treated with vehicle. For xenograft experiments, 6-7 week-old male C57BL/6 were purchased from Charles River Labs (Wilmington, MA, USA). All mice were maintained on food and water ad libitum and were age-matched and co-housed for all experiments. Mice were sacrificed and small intestine, colon, tumors or other organs were collected for analysis. All genotyping was done by PCR. Age- and sex-matched mice were used for all experiments
Tissues from indicated mice were isolated, rinsed in ice-cold PBS, fixed in 10% neutral buffered formalin overnight at 4° C., dehydrated, and embedded in paraffin. Sections (5 μm) were stained with hematoxylin and eosin (H&E). For immunohistochemistry, sections were deparaffinized, rehydrated, and then treated for antigen retrieval. After blocking in Protein Block Serum-Free solutions (DAKO), tissues were incubated with primary antibody overnight at 4° C. followed by incubation with biotinylated secondary antibody. Endogenous peroxidase was quenched in 3% H2O2 in water for 10 minutes at room temperature. Antibodies were visualized with avidin-biotin complex (Vectastain Elite; Vector Laboratories) using diaminobenzidine as the chromogen. Stained sections were analyzed with a Zeiss light microscope supplemented with Zen 3.3 Bule edition software. For immunofluorescence, the signal was visualized using the OPAL™ 4-Color Manual IHC Kit (Akoya Biosciences, MA), which allows simultaneous detection of multiple targets in the same image. Fluorophores Opal 520, Opal 570, and TSA Plus Cyanine 5 were used, and the sections were counterstained with Spectral DAPI.
Total RNA was extracted using Quick-RNA MiniPrep kit (Zymo Research). Libraries were prepared from 200 ng of total RNA using the QuantSeq 3′ mRNA-Seq Library Prep Kit FWD for Illumina from Lexogen, and optional UMIs (Vienna, Austria). Barcoded libraries were pooled, and single end sequenced (1×75) on the Illumina NextSeq 500 using the High output V2.5 kit (Illumina Inc., San Diego CA).
For 3′RNA-Seq, read data was processed with the BlueBee Genomics Platform (BlueBee, San Mateo, CA). […]

[3] = small intestine, PEGPH20 0.0375 mg/kg, 3 weeks

B1: PEGPH20: a PEGylated version of human recombinant PH20 hyaluronidase; clinical-grade pegylated hyaluronidase (Halozyme Therapeutics) (protein, UniProt P38567 36-490, looked up)
Hyaluronidase PH-20: LNFRAPPVIPNVPFLWAWNAPSEFCLGKFDEPLDMSLFSFIGSPRINATGQGVTIFYVDRLGYYPYIDSITGVTVNGGIPQKISLQDHLDKAKKDITFYMPVDNLGMAVIDWEEWRPTWARNWKPKDVYKNRSIELVQQQNVQLSLTEATEKAKQEFEKAGKDFLVETIKLGKLLRPNHLWGYYLFPDCYNHHYKKPGYNGSCFNVEIKRNDDLSWLWNESTALYPSIYLNTQQSPVAATLYVRNRVREAIRVSKIPDAKSPLPVFAYTRIVFTDQVLKFLSQDELVYTFGETVALGASGIVIWGTLSIMRSMKSCLLLDNYMETILNPYIINVTLAAKMCSQVLCQEQGVCIRKNWNSSDYLHLNPDNFAIQLEKGGKFTVRGKPTLEDLEQFSEKFYCSCYSTLSCKEKADVKDTDAVDVCIADGVCIDAFLKPPMETEEPQIFYNASPSTLS
modifications: PEGylated
MTO-sgPrkci/sgPrkcz
  Anxa10 expression: reduced
  Clu levels: without changes
[1]
  Olfm4 (Stem cell marker) IHC: increase
[2]; GSEA of Quant-seq, treated versus Veh
  signatures related to invasion and tumor progression (EMT, myogenesis, angiogenesis, TGFβ signaling), stromal activation, serrated tumorigenesis and the CMS4 subtype: decrease
[2]; GSEA of RNAseq, endogenous tumors
  IFN and allograft rejection signatures: enrichment
[2]; PEGPH20 0.0375 mg/kg twice a week, 3 weeks, IHC
  stromal HA accumulation: eliminated
[2]; PEGPH20 0.0375 mg/kg, 3 weeks
  cancer incidence in the small intestine: lower
  invasive carcinomas: reduced
  sessile serrated lesions (SSL): fewer
[2]; PEGPH20 0.0375 mg/kg, 3 weeks, Masson's trichrome, IHC
  collagen deposition and αSMA expression: reduced
[2]; figure legend title, FIGS. 16A-16E
  intestinal and colon tumors: reduces
[2]; proximal colon tumors
  colon tumorigenesis: reduced
[2]; [3]
  average tumor size: significant reduction
  tumor load: significant reduction
  tumor number: significant reduction
